Results from patent publication US20130243795A1 (Janssen / Centocor, published 2013).
Where two headings read alike, the source gives them in different places.

Experiments:
[1] = target: T1, Human CD27 ECD, monomeric soluble (construct limits not stated) (human, UniProt P26842 20-191); test: Biacore SPR; mAb captured via anti-mouse Fc; CD27 ECD as analyte; 25 C
T1 construct: extracellular domain; target of the Biacore assays; also called monomeric soluble CD27; CD27-His

[2] = target: T2, Human CD27, full length on the cell surface (human, UniProt P26842 21-260); test: cell-based or functional assay
[3] = target: T3, Recombinant human CD27/Fc chimera (R&D Systems, Cat#382-CD) (human, UniProt P26842 20-191); test: inhibition of IM-9 (CD70+) cell binding to immobilized CD27/Fc
T3 construct: extracellular domain; bought protein; also called huCD27-Fc; Hu CD27 Fc; Fc part of the bought chimera not given

[4] = target: T2, Human CD27, full length on the cell …; test: cell-based or functional assay; remark: listed apart in the source
[5] = target: T4, Human CD27 ECD truncated (ECD 1-121, cleavage site, His6) (human); test: ELISA of culture supernatants; binding to CD27 ECD; signal relative to the parent
T4 construct: also called human CD27 ECD with His Tag; CD27-His
T4 chain: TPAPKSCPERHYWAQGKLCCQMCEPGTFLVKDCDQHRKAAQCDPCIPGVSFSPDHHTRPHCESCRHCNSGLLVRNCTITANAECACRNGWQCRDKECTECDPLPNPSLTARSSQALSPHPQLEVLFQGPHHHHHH

[6] = target: T4, Human CD27 ECD truncated (ECD 1-121, …); test: ProteOn SPR; mAb captured via anti-human Fc; CD27 ECD as analyte
[7] = target: T2, Human CD27, full length on the cell …; test: cell-based or functional assay; remark: listed apart in the source
[8] = target: T1, Human CD27 ECD, monomeric soluble …; test: Biacore SPR, purified mAb
[9] = target: T2, Human CD27, full length on the cell …; test: cell-based or functional assay; remark: listed apart in the source
[10] = target: T2, Human CD27, full length on the cell …; test: cell-based or functional assay; remark: listed apart in the source
[11] = target: T1, Human CD27 ECD, monomeric soluble …; test: Biacore SPR, purified mAb, CD27 ECD
[12] = target: T1, Human CD27 ECD, monomeric soluble …; test: Biacore SPR, purified mAb; remark: listed apart in the source
[13] = target: T2, Human CD27, full length on the cell …; test: cell-based or functional assay; remark: listed apart in the source
[14] = target: T5, Human CD27 ECD (ECD 1-173, His6) (human, UniProt P26842 21-193, biotinylated on amine residues (NHS-ester) where used biotinylated); test: Fab format, pIX display and binding
T5 construct: also called biotinylated human CD27 ECD

[15] = target: T4, Human CD27 ECD truncated (ECD 1-121, …); test: ProteOn SPR, purified mAb, CD27-His
[16] = target: T1, Human CD27 ECD, monomeric soluble …; test: Biacore SPR, purified mAb; reference M160
[17] = target: T1, Human CD27 ECD, monomeric soluble …; test: Biacore SPR, purified mAb; remark: listed apart in the source
[18] = target: T4, Human CD27 ECD truncated (ECD 1-121, …); test: ProteOn SPR, purified mAb, CD27-His
[19] = target: T1, Human CD27 ECD, monomeric soluble …; test: Biacore SPR, purified mAb; reference M166

T3 sequence (P26842 20-191, change not shown): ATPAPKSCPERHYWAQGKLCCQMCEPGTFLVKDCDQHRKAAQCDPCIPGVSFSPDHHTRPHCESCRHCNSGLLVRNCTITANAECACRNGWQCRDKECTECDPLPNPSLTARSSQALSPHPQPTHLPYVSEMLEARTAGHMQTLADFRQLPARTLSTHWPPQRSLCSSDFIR
T1 sequence (P26842 20-191): as the sequence (P26842 20-191, change not shown) above

B1: C2186 (antibody, V domains shown)
VH: QVQLQQPGAELVKPGASVKLSCKASGYTFTNYWMNWVKQRPGRGLEWIGRIHPSDSETHYNQNFKSKATLTVDKSSSTAYIQLSSLTSEDSAVYYCARPVLYGDYGFPCWGQGTLVTVSA
VL: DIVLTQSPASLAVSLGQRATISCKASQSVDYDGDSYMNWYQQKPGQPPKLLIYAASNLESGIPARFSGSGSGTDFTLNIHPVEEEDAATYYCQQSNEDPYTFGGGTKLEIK
- Kd [1]: 2.55 nM
- Plasma blast differentiation % Inhibition at 2.5 ug/ml [2]: 93%
- T-Cell Proliferation % Inhibition at highest concentration (30 ug/ml) [2]: 65.3%
- T-Cell Proliferation - CD4+ Cells IC50 [2]: 0.775 µg/mL
- IC50 [3]: 0.059 µg/mL
- Agonism at 50 ug/ml (fold-increase in reporter gene signal relative to isotype control) [4]: 2.55 fold
- NF-kB reporter IC50 [4]: 0.105 µg/mL

B2: C2191 (antibody, V domains shown)
VH: EVKLVESGGGLVKPGGSLKLSCAASGFTFSSYTMSWVRQTPEKRLEWVAYISSGGGNTYYPDSVKGRFTISRDNARNTLYLQMSSLRSEDTAMYYCSRHRGNPFDYWGQGTTLTVSS
VL: DIVLTQSPASLAVSLGQRATISCRASKSVSTSGYSFMHWYQQKPGQPPKLLIYLASNLESGVPARFSGSGSGTDFTLNIHPVEEEDAATYYCQHSRELPWTFGGGTKLEIK
notes: also called C2191 hybridoma mAb
- Kd [1]: 2.62 nM
- Plasma blast differentiation % Inhibition at 2.5 ug/ml [2]: 105%
- T-Cell Proliferation % Inhibition at highest concentration (30 ug/ml) [2]: 58.3%
- T-Cell Proliferation - CD4+ Cells IC50 [2]: 0.3 µg/mL
- IC50 [3]: 0.059 µg/mL
- Agonism at 50 ug/ml (fold-increase in reporter gene signal relative to isotype control) [4]: 3.05 fold
- NF-kB reporter IC50 [4]: 0.08 µg/mL

B3: M41 (antibody, human IgG1, V domains shown)
VH: EVKLVESGGGLVKPGGSLKLSCAASGFTFSSYTMSWVRQTPEKRLEWVAYISSGGGNTYYPDSVKGRFTISRDNARNTLYLQMSSLRSEDTAMYYCSRHRGNPFDYWGQGTTLTVSS
VL: DIVLTQSPASLAVSLGQRATISCRASKSVSTSGYSFMHWYQQKPGQPPKLLIYLASNLESGVPARFSGSGSGTDFTLNIHPVEEEDAATYYCQHSRELPWTFGGGTKLEIK
notes: chimeric; also called C2191 parent; C2191 parent chimera
- ELISA signal [5]: 1
- Kd [6]: 10.3 nM
- NFkB IC50 [7]: 0.3 nM
- Kd [8]: 23.7 nM
- koff [8]: 0.0103 s⁻¹
- kon [8]: 435000 M⁻¹ s⁻¹
- NF-kB Assay IC50 [9]: 2.3 nM
- NFkB IC50 [10]: 0.045 nM
- Kd [11]: 13.7 nM

B4: C2177 (antibody, V domains shown)
VH: QVQLQQSGPELVKPGASVKISCKASGYAFSSSWMNWVKQRPGKGLEWIGRIYPGDGDTNYNGKFKGKATLTADKSSSTAYMQLSSLTSEDSAVYFCARSDYYGDYGFAYWGQGTLVTVSA
VL: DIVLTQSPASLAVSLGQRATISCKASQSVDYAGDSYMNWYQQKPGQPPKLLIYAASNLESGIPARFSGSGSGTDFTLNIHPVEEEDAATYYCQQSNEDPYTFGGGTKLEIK
notes: also called C2177 hybridoma mAb
- Kd [1]: 3.07 nM
- Plasma blast differentiation % Inhibition at 2.5 ug/ml [2]: 78%
- T-Cell Proliferation % Inhibition at highest concentration (30 ug/ml) [2]: 75.4%
- T-Cell Proliferation - CD4+ Cells IC50 [2]: 0.245 µg/mL
- IC50 [3]: 0.063 µg/mL
- Agonism at 50 ug/ml (fold-increase in reporter gene signal relative to isotype control) [4]: 1.85 fold
- NF-kB reporter IC50 [4]: 0.04 µg/mL

B5: C2192 (antibody, V domains shown)
VH: QVQLQQSGPELVKPGASVKISCKASGYAFSSSWMNWVKQRPGKGLEWIGRIYPGDGDTNYNGKFKGKATLTADKSSSTAYMQLSSLTSEDSAVYFCARRWDGGNYFFDYWGQGTTLTVSS
VL: DIVMTQSHKFMSTSVGDRVSITCMASQDVGTAVAWYQRRPGQSPKLLIYWTSTRHTGVPDRFTGSGSGTDFTLTISNVQSEDLADYFCQQYSSYPLTFGSGTKLEIK
- Kd [1]: 0.21 nM
- Plasma blast differentiation % Inhibition at 2.5 ug/ml [2]: 74%
- T-Cell Proliferation % Inhibition at highest concentration (30 ug/ml) [2]: 75.7%
- T-Cell Proliferation - CD4+ Cells IC50 [2]: 0.445 µg/mL
- IC50 [3]: 0.054 µg/mL
- Agonism at 50 ug/ml (fold-increase in reporter gene signal relative to isotype control) [4]: 5.39 fold
- NF-kB reporter IC50 [4]: 0.232 µg/mL

B6: M40 (antibody, human IgG1, V domains shown)
VH: QVQLQQSGPELVKPGASVKISCKASGYAFSSSWMNWVKQRPGKGLEWIGRIYPGDGDTNYNGKFKGKATLTADKSSSTAYMQLSSLTSEDSAVYFCARSDYYGDYGFAYWGQGTLVTVSA
VL: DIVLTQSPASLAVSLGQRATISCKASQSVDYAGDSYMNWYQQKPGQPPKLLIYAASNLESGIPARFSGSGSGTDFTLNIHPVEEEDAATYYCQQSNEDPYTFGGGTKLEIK
notes: chimeric; also called C2177 parent; C2177 parent chimera
- ELISA signal [5]: 1
- Kd [6]: 0.96 nM
- NFkB IC50 [7]: 0.14 nM
- Kd [12]: 1.24 nM
- koff [12]: 0.00132 s⁻¹
- kon [12]: 1.06e+06 M⁻¹ s⁻¹
- NF-kB Assay IC50 [13]: 0.466 nM

B7: M91 (antibody, human IgG1, V domains shown)
VH: QVQLVESGGGLVKPGGSLRLSCAASGFTFSSYTMSWIRQAPGKGLEWVSYISSGGGNTYYPDSVKGRFTISRDNAKNSLYLQMNSLRAEDTAVYYCARHRGNPFDYWGQGTLVTVSS
VL: DIQMTQSPSSLSASVGDRVTITCRASKSVSTSGYSFMHWYQQKPGKAPKLLIYLASNLESGVPSRFSGSGSGTDFTFTISSLQPEDIATYYCQHSRELPWTFGQGTKVEIK
notes: also called H31/L42; C2191 HFR variant
- ELISA signal [5]: 1.09
- Kd [6]: 7.9 nM
- NFkB IC50 [7]: 0.28 nM

B8: Parent Fab (VH3-23/Vk012 HFR Fab of C2191) (Fab, V domains shown)
VH: EVQLLESGGGLVQPGGSLRLSCAASGFTFSSYTMSWVRQAPGKGLEWVSYISSGGGNTYYPDSVKGRFTISRDNSKNTLYLQMNSLRAEDTAVYYCARHRGNPFDYWGQGTLVTVSS
VL: DIQMTQSPSSLSASVGDRVTITCRASKSVSTSGYSFMHWYQQKPGKAPKLLIYLASNLESGVPSRFSGSGSGTDFTLTISSLQPEDFATYYCQHSRELPWTFGQGTKVEIK
notes: Fab with human CH1 and Ck in the pIX phage display vector; also called H39/L40; parental HFR Fab
- binding result [14]: binds

B9: M169 (antibody, V domains shown)
VH: EVQLVQSGAEVKKPGESLKISCKGSGYAFSSSWMNWVRQMPGKGLEWMGRIYSGDGDTNYNGKFKGQVTISADKSISTAYLQWSSLKASDTAMYYCARSDYYGDYGFAYWGQGTLVTVSS
VL: DIQMTQSPSSLSASVGDRVTITCKASQSVDYAGDSFMNWYQQKPGKAPKLLIYAASNLESGVPSRFSGSGSGTDFTLTISSLQPEDFATYYCQQSNEDPYTFGQGTKVEIK
notes: isotype not restated (path 2 mAbs were IgG4 Ser to Pro, Ala/Ala / kappa); also called H221, L219; CM169
- Kd [15]: 0.059 nM
- koff [15]: 0.000139 s⁻¹
- kon [15]: 2.36e+06 M⁻¹ s⁻¹
- fold improvement in KD against the corresponding VH1-46 variant [16]: 2 fold
- Kd [17]: 0.069 nM
- koff [17]: 0.000102 s⁻¹
- kon [17]: 1.48e+06 M⁻¹ s⁻¹

B10: M55 (VH1-46/Vk012 HFR Fab of C2177) (Fab, V domains shown)
VH: QVQLVQSGAEVKKPGASVKVSCKASGYAFSSSWMNWVRQAPGQGLEWMGRIYPGDGDTNYNGKFKGRVTMTRDTSTSTVYMELSSLRSEDTAVYYCARSDYYGDYGFAYWGQGTLVTVSS
VL: DIQMTQSPSSLSASVGDRVTITCKASQSVDYAGDSYMNWYQQKPGKAPKLLIYAASNLESGVPSRFSGSGSGTDFTLTISSLQPEDFATYYCQQSNEDPYTFGQGTKLEIK
notes: Fab with human CH1 and Ck in the pIX phage display vector; also called H25/L36; parent HFR Fab
- binding result [14]: binds

B11: M671 (antibody, V domains shown)
VH: EVQLVQSGAEVKKPGESLKISCKGSGYAFSSSWMNWVRQMPGKGLEWMGRIYSGDADTNYNQKFKGQVTISADKSISTAYLQWSSLKASDTAMYYCARSDYYGDYGFAYWGQGTLVTVSS
VL: DIQMTQSPSSLSASVGDRVTITCKASQSVDYAGESFMNWYQQKPGKAPKLLIYAASNLESGVPSRFSGSGSGTDFTLTISSLQPEDFATYYCQQSNEDPYTFGQGTKVEIK
notes: isotype not restated (path 2); also called H258,L266
- Kd [15]: 0.039 nM
- koff [15]: 9.73e-05 s⁻¹
- kon [15]: 2.52e+06 M⁻¹ s⁻¹
- fold lower KD against the parental mAb M169 [18]: ~2 fold

B12: M668 (antibody, V domains shown)
VH: QVQLVQSGAEVKKPGASVKVSCKASGYAFSSSWMNWVRQAPGQGLEWMGRIYSGDADTNYAQKFKGRVTMTRDTSTSTVYMELSSLRSEDTAVYYCARSDYYGDYGFAYWGQGTLVTVSS
VL: DIQMTQSPSSLSASVGDRVTITCKASQSVDYAGESFMNWYQQKPGKAPKLLIYAASNLESGVPSRFSGSGSGTDFTLTISSLQPEDFATYYCQQSNEDPYTFGQGTKVEIK
notes: isotype not restated (path 2); also called H255,L266
- Kd [15]: 0.06 nM
- koff [15]: 0.000129 s⁻¹
- kon [15]: 2.14e+06 M⁻¹ s⁻¹
- fold lower KD against the parental mAb M160 [18]: ~2 fold

B13: M170 (antibody, V domains shown)
VH: EVQLVQSGAEVKKPGESLKISCKGSGYAFSSSWMNWVRQMPGKGLEWMGRIYSGDGDTNYNGKFKGQVTISADKSISTAYLQWSSLKASDTAMYYCARSDYYGDYGFAYWGQGTLVTVSS
VL: DIQMTQSPSSLSASVGDRVTITCKASQSVDYAHESFMNWYQQKPGKAPKLLIYAASNLESGVPSRFSGSGSGTDFTLTISSLQPEDFATYYCQQSNEDPYTFGQGTKVEIK
notes: isotype not restated (path 2); also called H221, L217
- fold improvement in KD against the corresponding VH1-46 variant [19]: 2 fold
- Kd [17]: 0.07 nM
- koff [17]: 0.000116 s⁻¹
- kon [17]: 1.66e+06 M⁻¹ s⁻¹
